In the supplement of paper PMC9732359:
± gives the uncertainty stated by the source.

Test: protein stability index of a GFP-peptide fusion (yeast GPS) (PSI 1-4); higher = more stable; sorted into four equal gates, so the index is relative within each strain
Procedure, shortened: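 Tiled 17-residue peptides from yeast proteins were fused downstream of GFP on a plasmid that also expresses Cherry, and the pooled library was carried in yeast. Mid-log cultures grown in leucine-free medium were sorted into four equal gates by GFP/Cherry fluorescence ratio. Plasmids from each gate were PCR-amplified and Illumina-sequenced, and reads were assigned to strains by barcodes. Each peptide's protein stability index is the sum, over gates, of the gate's read frequency multiplied by its gate number.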

| Sequence | protein stability index (doa10∆) | protein stability index (pdr5∆) | protein stability index (san1∆) | protein stability index (ubr1∆) |
| --- | --- | --- | --- | --- |
| SIKSQKEEISDQKPIEH [SWI3] | 2.88 ± 0.059 | 2.98 ± 0.055 | 2.84 ± 0.048 | 2.96 ± 0.045 |
| ARAVQDNGESAFRTLRL [RPL13A] | 3 ± 0.13 | 2.88 ± 0.1 | 1.57 ± 0.098 | 2.87 ± 0.096 |
| SNVAAIFKGIGGNFKDL [GAL11] | 2.78 ± 0.11 | 2.76 ± 0.079 | 2.58 ± 0.079 | 2.72 ± 0.1 |
| LLKGPASTVAKTAPIQE [YOR098C/NUP1] | 2.52 ± 0.1 | 2.46 ± 0.094 | 1.91 ± 0.18 | 2.87 ± 0.071 |
| ILKSPHLSKSPADRPQG [SIR4] | 2.43 ± 0.074 | 2.51 ± 0.058 | 2.33 ± 0.056 | 2.37 ± 0.045 |
| RRANFYKENEAMLRENI [SNF12] | 3.29 ± 0.094 | 3.2 ± 0.14 | 3.33 ± 0.074 | 3.39 ± 0.11 |
| GKLLLDEHNELMRQALA [RPO21] | 2.41 ± 0.052 | 2.54 ± 0.086 | 2.02 ± 0.074 | 2.84 ± 0.051 |
| QDEVNKGPAIDELSSKE [NNF1] | 3.23 ± 0.061 | 3.36 ± 0.081 | 3.34 ± 0.077 | 3.24 ± 0.057 |
| PQNMLFEGCYYTPEESA [RPC25] |  | 2.42 ± 0.21 | 2.55 ± 0.21 | 2.5 ± 0.12 |
| RKIEAETRNGKVKNQGA [YCS4] | 2.89 ± 0.14 | 3.43 ± 0.12 | 3.12 ± 0.12 | 3.22 ± 0.13 |
| KPLTENCKKKKKRKKKN [RMP1] | 2.97 ± 0.19 | 1.89 ± 0.28 | 1.5 ± 0.14 | 3.38 ± 0.19 |
| PRLDAQAIKEASYVNIP [RPS0B] | 2.88 ± 0.041 | 2.84 ± 0.039 | 2.79 ± 0.044 | 2.52 ± 0.031 |
| FQQIQYENKQLYFPDDY [POP1] | 2.92 ± 0.11 | 2.5 ± 0.083 | 2.78 ± 0.12 | 2.73 ± 0.086 |
| DPLYDITKVPALEFLNT [REC8] | 2.32 ± 0.069 | 2.72 ± 0.093 | 2.61 ± 0.11 | 2.62 ± 0.083 |
| GVRDINCVNDVLEFCKD [POP1] | 2.93 ± 0.18 | 2.82 ± 0.18 | 2.36 ± 0.24 | 3.09 ± 0.26 |
| DAISQVINIAKAHPNFP [FAS1] | 1.41 ± 0.076 | 2.65 ± 0.095 | 2.03 ± 0.26 | 2.91 ± 0.082 |
| PTIEEDLTRVYKAISAQ [FAS2] | 2.22 ± 0.051 | 2.21 ± 0.041 | 2.75 ± 0.056 | 2.32 ± 0.042 |
| KKRMNSNQERCHDEGND [RRI1] | 3.24 ± 0.064 | 3.01 ± 0.068 | 3.06 ± 0.071 | 3.13 ± 0.061 |
| VTVSIKSRIVKVVGPRG [RPL9A] | 2.08 ± 0.051 | 2.63 ± 0.048 | 2.47 ± 0.052 | 2.75 ± 0.032 |
| QWNKLTSFDIKREGRNE [POP6] | 3.31 ± 0.3 |  |  |  |
| MLQISDDNEMTRDDLLT [RRI2] | 2.93 ± 0.1 | 3.27 ± 0.1 | 3.17 ± 0.038 | 3.1 ± 0.056 |
| ELEKKYHGNECEINYYE [SRB8] | 3.04 ± 0.11 | 3.19 ± 0.086 | 3.26 ± 0.064 | 3.17 ± 0.066 |

| Sequence | protein stability index (doa10∆) | protein stability index (pdr5∆) | protein stability index (san1∆) | protein stability index (ubr1∆) |
| --- | --- | --- | --- | --- |
| AHMGVLLVLLQDVIKVL [SWP82] | 1.51 ± 0.068 | 1.58 ± 0.084 | 1.45 ± 0.1 | 1.51 ± 0.057 |
| SITLQGDVYDPEGTLSG [SMC2] | 2.76 ± 0.16 | 2.6 ± 0.13 |  | 2.28 ± 0.12 |
| MFGAKPAGTSLFGNNAG [YGL172W/NUP49] | 3.16 ± 0.076 | 3.08 ± 0.067 | 3.01 ± 0.072 | 3.06 ± 0.053 |
| DGILRLYDALEPSDLRS [YGL100W/SEH1] | 3.02 ± 0.061 | 3.02 ± 0.051 | 2.77 ± 0.041 | 2.99 ± 0.042 |
| PQKNLLLKGPASTVAKT [YOR098C/NUP1] | 2.73 ± 0.057 | 2.94 ± 0.041 | 2.68 ± 0.054 | 2.83 ± 0.055 |
| LFEVNPSQTLFSISYKP [SRP21] | 2.57 ± 0.071 | 2.84 ± 0.077 | 2.28 ± 0.091 | 2.64 ± 0.045 |
| NGIVDQVLVTTNQDGLK [RPB2] | 2.55 ± 0.092 | 2.18 ± 0.1 | 2.61 ± 0.088 | 1.81 ± 0.055 |
| PQIAQLPLATQQQVLNK [SNF5] | 1.94 ± 0.074 | 2.3 ± 0.075 | 2 ± 0.13 | 2.17 ± 0.068 |
| TLISRISSLFTITTILI [YML103C/NUP188] | 1.63 ± 0.068 | 1.8 ± 0.066 | 1.37 ± 0.088 | 2.02 ± 0.11 |
| AAKKRRPAAKGKNLSFK [RRP6] | 2.35 ± 0.24 | 2.77 ± 0.14 | 2.35 ± 0.2 | 2.72 ± 0.1 |
| GPPQSLYGLNLTLRKAK [FAS1] | 2.81 ± 0.064 | 2.15 ± 0.065 | 3.32 ± 0.06 | 2.42 ± 0.051 |
| PPEVTSSNCHVRQKIKT [POP1] | 3.05 ± 0.071 | 3.1 ± 0.072 | 2.78 ± 0.073 | 3.01 ± 0.045 |
| TQDVFLKDFNTERVVEI [FAS2] | 3.116 ± 0.026 | 3.205 ± 0.023 | 3.211 ± 0.021 | 3.093 ± 0.019 |
| EECSGRRWNKLCTLNDS [YGL100W/SEH1] | 2.99 ± 0.051 | 3.17 ± 0.053 | 2.82 ± 0.05 | 2.78 ± 0.041 |
| YLKHVSRRFKNGFQTGS [RPL37A] | 2.06 ± 0.085 | 3.23 ± 0.062 | 3.16 ± 0.084 | 3.46 ± 0.056 |
| MDTIQDKLINDVTAIQT [ECM29] | 3.22 ± 0.083 | 3.23 ± 0.1 | 3.2 ± 0.085 | 3.34 ± 0.055 |
| HVSHEAMREVNDEKRVK [YIL149C/MLP2] | 2.74 ± 0.097 | 2.89 ± 0.15 |  | 3.03 ± 0.12 |
| TTLGKLSTSVGWKYEDV [RPL16A] | 2.87 ± 0.069 | 3 ± 0.071 | 2.97 ± 0.078 | 2.73 ± 0.073 |
| NNKIITLVKGPKEPRLK [SKI6] | 2.91 ± 0.2 | 2.86 ± 0.16 |  | 3.14 ± 0.081 |
| SNLSQNVVPYHRNTSDY [SWI1] | 2.65 ± 0.083 | 3.07 ± 0.086 | 2.82 ± 0.1 | 2.92 ± 0.058 |
| EIDHVEYYVMMDFANLW [SRB8] | 2.98 ± 0.067 | 2.69 ± 0.054 | 2.81 ± 0.056 | 2.92 ± 0.036 |
